In publication PMC8270905, “Structural basis of LAIR1 targeting by polymorphic Plasmodium RIFINs” (Nature Communications, 2021):

T1: RIFIN (PF3D7_1040300) V2 domain, His-tagged (Plasmodium falciparum 3D7, UniProt Q8IJ06 184-328)
T1 construct: RIFIN PF3D7_1040300 (RIF1) of Plasmodium falciparum 3D7, variable domain 2 (V2); PDB 7JZI holds the V2 domain of this RIFIN; also called RIF1; source: Expi293F or Expi293 GnTI- cells, transfected
T1 sequence: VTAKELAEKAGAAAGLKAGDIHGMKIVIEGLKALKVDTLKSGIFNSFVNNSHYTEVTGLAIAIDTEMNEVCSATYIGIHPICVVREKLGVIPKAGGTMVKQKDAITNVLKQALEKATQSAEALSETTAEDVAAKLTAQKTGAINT

B1: native human LAIR1 (receptor)
chain: QEEDLPRPSISAEPGTVIPLGSHVTFVCRGPVGVQTFRLERDSRSTYNDTEDVSQASPSESEARFRIDSVREGNAGLYRCIYYKPPKWSEQSDYLELLVKE
modifications: N-linked glycosylation at N153 (MGD21 numbering)
notes: Leukocyte-associated immunoglobulin-like receptor 1 (LAIR1), human, unmutated; Probably the same limits as the MGD21 LAIR1 ectodomain; also called hLAIR1; unmutated (native) LAIR1; source: Expi293F or Expi293 GnTI- cells, transfected

What was measured:
[1] = target: RIFIN (co-IP of the LAIR1 mutation series, Fig. 2c) (Plasmodium falciparum 3D7); test: co-IP; conditioned media incubated with protein A resin for one hour at room temperature; Fc-tagged RIFIN or LAIR1 pulled down, partner without Fc co-pulled down; SDS-PAGE, Coomassie blue, bands quantified with ImageJ
[2] = target: RIFIN (co-IP of the LAIR1 mutation series, Fig. 2c); test: co-immunoprecipitation (Protein A Co-IP, SDS-PAGE band quantification); settings: LAIR1 Fc tag; RIFIN-V2 MBP tag; n = 3 independent measurements; parent: est. 3.0; read off a plot
[3] = target: T1, RIFIN (PF3D7_1040300) V2 domain, …; test: BLI; fortéBio Octet Red384; His-tagged RIFIN V2 domain immobilised on Ni-NTA biosensors, dipped into LAIR1 or MGD21 in a twofold concentration series; global fit, 1:1 Langmuir model; settings: both partners purified

| Molecule | fold increase in affinity over native LAIR1 [1] [fold] | other: % pulldown vs MGD21 (% of MGD21 LAIR1 pulldown) [2] | also measured |
| --- | --- | --- | --- |
| LAIR1 N153S (receptor) | 10 |  |  |
| native human LAIR1 (from UniProt Q6GTX8) T151L; N153S |  | 66 |  |
| native human LAIR1 (from UniProt Q6GTX8) T151L; N153S; P190S; P191R |  | 62 |  |
| native human LAIR1 (from UniProt Q6GTX8) T151L; N153S; A161T; P190S; P191R |  | 58 |  |
| LAIR1 T151L (receptor) | 10 |  |  |
| B1 |  |  | Kd [3]: > 1000 nM |
